According to patent publication US20250269048A1 (BIVICTRIX, published 2025):
Where a chain is given by its changes, count along the chain named. One block for each binder: values may come before it.

Assays:
[1] = molecular target: T1, human CD7 on cells (human, UniProt P09564 26-240); test: FACS; cells not named
T1 construct: whole, on cells; Target of the FACS and cell capture values and of the kill assays on CD7 single positive cells; also called CD7+ cells; Jurkat (CD33-/CD7+)
T1 sequence (looked up): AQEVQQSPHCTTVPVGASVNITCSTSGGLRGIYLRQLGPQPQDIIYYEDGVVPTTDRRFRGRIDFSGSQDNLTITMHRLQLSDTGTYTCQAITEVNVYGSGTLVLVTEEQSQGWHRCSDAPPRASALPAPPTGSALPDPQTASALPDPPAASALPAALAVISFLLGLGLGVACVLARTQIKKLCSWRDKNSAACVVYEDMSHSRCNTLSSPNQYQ

[2] = molecular target: T1, human CD7 on cells; test: FACS; reference 7-PP-1 WT
[3] = molecular target: T2, human CD7 (human, UniProt P09564 26-180, limits assumed); test: SPR; reference 7-AA-WT
T2 construct: The construct is not described
T2 sequence (looked up): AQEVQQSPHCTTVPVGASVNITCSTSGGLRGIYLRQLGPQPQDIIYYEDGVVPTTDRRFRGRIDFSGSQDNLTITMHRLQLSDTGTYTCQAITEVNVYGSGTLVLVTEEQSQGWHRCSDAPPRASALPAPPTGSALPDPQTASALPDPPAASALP

[4] = molecular target: T2, human CD7; test: SPR; reference 7-PP-1 WT
[5] = molecular target: T2, human CD7; test: SPR
[6] = molecular target: human CD33 on cells (human, UniProt P20138 18-364); test: cell-based or functional assay
[7] = molecular target: T1, human CD7 on cells; test: cell-based or functional assay

Chain of human CD33 on cells (P20138 18-364): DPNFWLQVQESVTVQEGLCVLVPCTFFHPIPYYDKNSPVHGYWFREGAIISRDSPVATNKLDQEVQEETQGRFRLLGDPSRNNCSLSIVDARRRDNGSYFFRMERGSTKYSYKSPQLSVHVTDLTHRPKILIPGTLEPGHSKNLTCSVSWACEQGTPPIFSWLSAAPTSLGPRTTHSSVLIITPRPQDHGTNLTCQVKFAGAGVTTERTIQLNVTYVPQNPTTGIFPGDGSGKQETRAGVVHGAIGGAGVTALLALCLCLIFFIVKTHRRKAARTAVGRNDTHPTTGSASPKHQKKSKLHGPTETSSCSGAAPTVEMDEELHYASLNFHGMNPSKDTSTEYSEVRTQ

FACS binding [1]: 1990
FACS fold reduction compared to PP WT [2]: 3740 fold
B1: 7-PP-4 (Fab, V domains shown)
VH: QVQLQESGAELVKPGASVKLSCKASGYTFTSYWMHWVKQRPGQGLEWIGKINPSNGRTNYNEKFKSKATLTVDKSSSTAYMQLSSLTSEDSAVYYCARGGVTYDLYYYALDYWGQGTTVTVSS
VL: DIELTQSPATLSVTPGDSVSLSCRASQSISNNLHWYQQKSHESPRLLIKSASQSISGIPSRFSGSGSGTDFTLSINSVETEDFGMYFCQQSNSWPYTFGGGTKLEIKR

Fold Reduction in binding affinity compared to WT (Kd) [3]: 93.7 fold
Fold Reduction in binding affinity compared to PP WT (Kd) [4]: 69.1 fold
FACS binding [1]: 55.9
FACS fold reduction compared to PP WT [2]: 105 fold
Kd [5]: 246 nM
B2: 7-PP-11 (Fab, V domains shown)
VH: B1 VH with T102Y, D104A, Y108A
VL: B1 VL

Fold Reduction in binding affinity compared to WT (Kd) [3]: 2.08 fold
Fold Reduction in binding affinity compared to PP WT (Kd) [4]: 1.53 fold
FACS binding [1]: 0.002
FACS fold reduction compared to PP WT [2]: 0.004 fold
Kd [5]: 5.46 nM
B3: CD7-PP-12 CD7 binding arm (Fab, V domains shown)
VH: B1 VH with T102Y
VL: B1 VL with Q27A
notes: Light chain Gln27Ala

FACS binding [1]: 335
FACS fold reduction compared to PP WT [2]: 628 fold
B4: 7-PP-10 (Fab, V domains shown)
VH: B1 VH with T102Y, L105G, Y108A
VL: B1 VL

Fold Reduction in binding affinity compared to WT (Kd) [3]: 28.8 fold
Fold Reduction in binding affinity compared to PP WT (Kd) [4]: 21.3 fold
FACS binding [1]: 34.6
FACS fold reduction compared to PP WT [2]: 64.9 fold
Kd [5]: 75.7 nM
B5: CD7-PP-2 CD7 binding arm (Fab, V domains shown)
VH: B1 VH with R57G, T102Y
VL: B1 VL
notes: Heavy chain Arg57Gly

Fold Reduction in binding affinity compared to WT (Kd) [3]: 87.2 fold
Fold Reduction in binding affinity compared to PP WT (Kd) [4]: 64.3 fold
FACS binding [1]: 96.8
FACS fold reduction compared to PP WT [2]: 182 fold
Kd [5]: 229 nM
B6: CD7-PP-8 CD7 binding arm (Fab, V domains shown)
VH: B1 VH with R57K, T102Y, Y108A
VL: B1 VL

Fold Reduction in binding affinity compared to WT (Kd) [3]: 12.4 fold
Fold Reduction in binding affinity compared to PP WT (Kd) [4]: 9.13 fold
FACS binding [1]: 13
FACS fold reduction compared to PP WT [2]: 24.5 fold
Kd [5]: 32.5 nM
B7: CD7-PP-3 CD7 binding arm (Fab, V domains shown)
VH: B1 VH with R57K, T102Y
VL: B1 VL
notes: Heavy chain Arg57Lys

Fold Reduction in binding affinity compared to WT (Kd) [3]: 17.2 fold
Fold Reduction in binding affinity compared to PP WT (Kd) [4]: 12.7 fold
FACS binding [1]: 9.76
FACS fold reduction compared to PP WT [2]: 18.3 fold
Kd [5]: 45.2 nM
B8: CD7-PP-6 binding arm (Fab, V domains shown)
VH: B1 VH with T102Y, D104A
VL: B1 VL
notes: Heavy chain Asp104Ala

FACS binding [1]: 268
FACS fold reduction compared to PP WT [2]: 503 fold
B9: 7-PP-5 (Fab, V domains shown)
VH: B1 VH with T102Y, L105G
VL: B1 VL

FACS binding [1]: 275
FACS fold reduction compared to PP WT [2]: 517 fold
B10: 7-PP-9 (Fab, V domains shown)
VH: B1 VH with Y108A
VL: B1 VL

Fold Reduction in binding affinity compared to WT (Kd) [3]: 206 fold
Fold Reduction in binding affinity compared to PP WT (Kd) [4]: 152 fold
FACS binding [1]: 267
FACS fold reduction compared to PP WT [2]: 502 fold
Kd [5]: 541 nM
B11: CD7-PP-7 CD7 binding arm (Fab, V domains shown)
VH: B1 VH with R57G, T102Y, Y108A
VL: B1 VL
notes: Heavy chain Arg57Gly/Tyr108Ala

B12: BVX100-MMAE (bispecific antibody)
heavy: QVQLQESGAELVKPGASVKLSCKASGYTFTSYWMHWVKQRPGQGLEWIGKINPSNGRTNYNEKFKSKATLTVDKSSSTAYMQLSSLTSEDSAVYYCARGGVYYDLYYYALDYWGQGTTVTVSSASTKGPSVFPLAPSSKSTSGGTAALGCLVKDYFPEPVTVSWNSGALTSGVHTFPAVLQSSGLYSLSSVVTVPSSSLGTQTYCCNVNHKPSNTKVDKKVEPKSCDKT
light: DIELTQSPATLSVTPGDSVSLSCRASQSISNNLHWYQQKSHESPRLLIKSASQSISGIPSRFSGSGSGTDFTLSINSVETEDFGMYFCQQSNSWPYTFGGGTKLEIKRTVAAPSVFIFPPSDEQLKSGTASVVCLLNNFYPREAKVQWKVDNALQSGNSQESVTEQDSKDSTYSLSSTLTLSKADYEKHKVYACEVTHQGLSSPVTKSFNRGEC
VH: EVQLVQSGAEVKKPGSSVKVSCKASGYTITDSNIHWVRQAPGQSLEWIGYIYPYNGGTDYNQKFKNRATLTVDNPTNTAYMELSSLRSEDTAFYYCVNGNPWLAYWGQGTLVTVSS
VL: DIQLTQSPSTLSASVGDRVTIICRASESLDNYGIRFLTWFQQKPGKAPKLLMYAASNQGSGVPSRFSGSGSGTEFTLTISSLQPDDFATYYCQQTKEVPWSFGQGTKLEIK
EC50 (nM), cytotoxicity (MTS, 96 h) on MV4.11 cells (CD7-/CD33+) [6]: 10.8 nM
EC50 (nM), cytotoxicity (MTS, 96 h) on SHI-1 cells (CD7-/CD33+) [6]: 2.26 nM
EC50 (nM), cytotoxicity (MTS, 96 h) on Jurkat cells (CD7+/CD33-) [7]: 0.92 nM

B13: BVX140-MMAE (bispecific antibody)
heavy: B12 heavy with R57G, Y108A
light: B12 light
VH: B12 VH
VL: B12 VL
EC50 (nM), cytotoxicity (MTS, 96 h) on Jurkat cells (CD7+/CD33-) [7]: 22.8 nM

B14: BVX130-MMAE (bispecific antibody)
heavy: B12 heavy with D104A
light: B12 light
VH: B12 VH
VL: B12 VL
EC50 (nM), cytotoxicity (MTS, 96 h) on MV4.11 cells (CD7-/CD33+) [6]: 24.1 nM
EC50 (nM), cytotoxicity (MTS, 96 h) on SHI-1 cells (CD7-/CD33+) [6]: 17.5 nM
EC50 (nM), cytotoxicity (MTS, 96 h) on Jurkat cells (CD7+/CD33-) [7]: 5.83 nM

B15: BVX110-MMAE (bispecific antibody)
heavy: B12 heavy with R57G
light: B12 light
VH: B12 VH
VL: B12 VL
EC50 (nM), cytotoxicity (MTS, 96 h) on MV4.11 cells (CD7-/CD33+) [6]: 27 nM
EC50 (nM), cytotoxicity (MTS, 96 h) on SHI-1 cells (CD7-/CD33+) [6]: 11.4 nM
EC50 (nM), cytotoxicity (MTS, 96 h) on Jurkat cells (CD7+/CD33-) [7]: 4.52 nM

B16: BVX150-MMAE (bispecific antibody)
heavy: B12 heavy with R57K, Y108A
light: B12 light
VH: B12 VH
VL: B12 VL
EC50 (nM), cytotoxicity (MTS, 96 h) on MV4.11 cells (CD7-/CD33+) [6]: 9.19 nM
EC50 (nM), cytotoxicity (MTS, 96 h) on SHI-1 cells (CD7-/CD33+) [6]: 5.23 nM
EC50 (nM), cytotoxicity (MTS, 96 h) on Jurkat cells (CD7+/CD33-) [7]: 1.6 nM

B17: BVX120-MMAE (bispecific antibody)
heavy: B12 heavy with R57K
light: B12 light
VH: B12 VH
VL: B12 VL
EC50 (nM), cytotoxicity (MTS, 96 h) on MV4.11 cells (CD7-/CD33+) [6]: 16.5 nM
EC50 (nM), cytotoxicity (MTS, 96 h) on SHI-1 cells (CD7-/CD33+) [6]: 7.21 nM
EC50 (nM), cytotoxicity (MTS, 96 h) on Jurkat cells (CD7+/CD33-) [7]: 1.52 nM

B18: BVX160-MMAE (bispecific antibody)
heavy: B12 heavy with Y108A
light: B12 light
VH: B12 VH
VL: B12 VL
EC50 (nM), cytotoxicity (MTS, 96 h) on Jurkat cells (CD7+/CD33-) [7]: 7.31 nM
